According to PMC3068996:

Target: recombinant GST-tagged TgNF3 (Toxoplasma gondii nuclear factor 3) (T. gondii)
Assay: pull-down

Work on “purified core histones from HeLa cells (H3, H4, H2A/H2B) (from UniProt P68431 1-136; P62805 1-103; P0C0S8 1-130; P62807 1-126) (complex)” yielded a percent of input bound of 25%.
